Measurements reported in PMC6999705.

How the values were obtained:
RGE-MFG-E8-Ig (mouse) = RGE-MFG-E8-Ig (mouse) (UniProt P21956); experiment: SEC
MFG-E8-Ig (mouse) = MFG-E8-Ig (mouse) (UniProt P21956); experiment: SEC

Row | stoichiometry N (RGE-MFG-E8-Ig (mouse)) | stoichiometry N (MFG-E8-Ig (mouse)) | Substance
1 | 2 | – | RGE-MFG-E8-Ig (from UniProt P21956 23-148) (Fc fusion)
2 | – | 2 | MFG-E8-Ig (from UniProt P21956 23-148) (Fc fusion)
